Data published in article PMC8298264, “Function of cofactor Akirin2 in the regulation of gene expression in model human neutrophil-like HL60 cells” (Bioscience Reports, 2021).

B1: sp¦Q86Y56¦DAAF5_HUMAN (protein, UniProt Q86Y56 2-855, looked up)
Dynein axonemal assembly …: AALGVAEAVAAPHPAEGAETAEAVELSRALSRLLPGLEADSKPGRRRALEALRRALEEPGPAADPTAFQGPWARLLLPRLLRCLSDPAEGCRALAVHLLDLGLRRAARPRDALPRLLPALAARLAGPVPARRPPEACEELRLALVQLLGLAVDLCGAALAPHLDDALRALRCSLLDPFAAVRRESCSCAAALAQATPDHFHMQSESLIGPLMQTISHQHWKVRVAAIEATGAVIHFGNGKSVDDVLSHFAQRLFDDVPQVRRAVASVVGGWLLCLRDRYSFFHKLIPLLLSSLNDEVPEVRQLAASLWEDVGLQWQKENEEDLKDKLDFAPPTPPHYPPHERRPVLGCRELVFRNLSKILPALCHDITDWVVGTRVKSAQLLPVLLLHAEDHATQHLEVVLRTLFQACTDEEAAVVQSCTRSAELVGTFVSPEVFLKLILSTLKKTPSASGLLVLASAMRGCPREALQPHLAAIATELAQAHICQASENDLYLERLLLCVQALVSVCHEDCGVASLQLLDVLLTIVALAGATGLRDKAQETMDSLAMVEGVSSCQDLYRKHIGPLLERVTASHLDWTAHSPELLQFSVIVAQSGPALGEALPHVVPTLRACLQPSQDPQMRLKLFSILSTVLLRATDTINSQGQFPSYLETVTKDILAPNLQWHAGRTAAAIRTAAVSCLWALTSSEVLSAEQIRDVQETLMPQVLTTLEEDSKMTRLISCRIINTFLKTSGGMTDPEKLIRIYPELLKRLDDVSNDVRMAAASTLVTWLQCVKGANAKSYYQSSVQYLYRELLVHLDDPERAIQDAILEVLKEGSGLFPDLLVRETEAVIHKHRSATYCEQLLQHVQAVPATQ
B2: sp¦P13995¦MTDC_HUMAN (protein, UniProt P13995 36-350, looked up)
Bifunctional …: EAVVISGRKLAQQIKQEVRQEVEEWVASGNKRPHLSVILVGENPASHSYVLNKTRAAAVVGINSETIMKPASISEEELLNLINKLNNDDNVDGLLVQLPLPEHIDERRICNAVSPDKDVDGFHVINVGRMCLDQYSMLPATPWGVWEIIKRTGIPTLGKNVVVAGRSKNVGMPIAMLLHTDGAHERPGGDATVTISHRYTPKEQLKKHTILADIVISAAGIPNLITADMIKEGAAVIDVGINRVHDPVTAKPKLVGDVDFEGVRQKAGYITPVPGGVGPMTVAMLMKNTIIAAKKVLRLEEREVLKSKELGVATN
B3: sp¦Q6IBS0¦TWF2_HUMAN (protein, UniProt Q6IBS0 2-349, looked up)
Twinfilin-2: AHQTGIHATEELKEFFAKARAGSVRLIKVVIEDEQLVLGASQEPVGRWDQDYDRAVLPLLDAQQPCYLLYRLDSQNAQGFEWLFLAWSPDNSPVRLKMLYAATRATVKKEFGGGHIKDELFGTVKDDLSFAGYQKHLSSCAAPAPLTSAERELQQIRINEVKTEISVESKHQTLQGLAFPLQPEAQRALQQLKQKMVNYIQMKLDLERETIELVHTEPTDVAQLPSRVPRDAARYHFFLYKHTHEGDPLESVVFIYSMPGYKCSIKERMLYSSCKSRLLDSVEQDFHLEIAKKIEIGDGAELTAEFLYDEVHPKQHAFKQAFAKPKGPGGKRGHKRLIRGPGENGDDS
B4: sp¦Q04837¦SSBP_HUMAN (protein, UniProt Q04837 17-148, looked up)
Single-stranded DNA-binding …: ESETTTSLVLERSLNRVHLLGRVGQDPVLRQVEGKNPVTIFSLATNEMWRSGDSEVYQLGDVSQKTTWHRISVFRPGLRDVAYQYVKKGSRIYLEGKIDYGEYMDKNNVRRQATTIIADNIIFLSDQTKEKE
B5: sp¦B0I1T2¦MYO1G_HUMAN (protein, UniProt B0I1T2 1-1018, looked up)
Unconventional myosin-Ig: MEDEEGPEYGKPDFVLLDQVTMEDFMRNLQLRFEKGRIYTYIGEVLVSVNPYQELPLYGPEAIARYQGRELYERPPHLYAVANAAYKAMKHRSRDTCIVISGESGAGKTEASKHIMQYIAAVTNPSQRAEVERVKDVLLKSTCVLEAFGNARTNRNHNSSRFGKYMDINFDFKGDPIGGHIHSYLLEKSRVLKQHVGERNFHAFYQLLRGSEDKQLHELHLERNPAVYNFTHQGAGLNMTVHSALDSDEQSHQAVTEAMRVIGFSPEEVESVHRILAAILHLGNIEFVETEEGGLQKEGLAVAEEALVDHVAELTATPRDLVLRSLLARTVASGGRELIEKGHTAAEASYARDACAKAVYQRLFEWVVNRINSVMEPRGRDPRRDGKDTVIGVLDIYGFEVFPVNSFEQFCINYCNEKLQQLFIQLILKQEQEEYEREGITWQSVEYFNNATIVDLVERPHRGILAVLDEACSSAGTITDRIFLQTLDMHHRHHLHYTSRQLCPTDKTMEFGRDFRIKHYAGDVTYSVEGFIDKNRDFLFQDFKRLLYNSTDPTLRAMWPDGQQDITEVTKRPLTAGTLFKNSMVALVENLASKEPFYVRCIKPNEDKVAGKLDENHCRHQVAYLGLLENVRVRRAGFASRQPYSRFLLRYKMTCEYTWPNHLLGSDKAAVSALLEQHGLQGDVAFGHSKLFIRSPRTLVTLEQSRARLIPIIVLLLQKAWRGTLARWRCRRLRAIYTIMRWFRRHKVRAHLAELQRRFQAARQPPLYGRDLVWPLPPAVLQPFQDTCHALFCRWRARQLVKNIPPSDMPQIKAKVAAMGALQGLRQDWGCRRAWARDYLSSATDNPTASSLFAQRLKTLQDKDGFGAVLFSSHVRKVNRFHKIRNRALLLTDQHLYKLDPDRQYRVMRAVPLEAVTGLSVTSGGDQLVVLHARGQDDLVVCLHRSRPPLDNRVGELVGVLAAHCQGEGRTLEVRVSDCIPLSHRGVRRLISVEPRPEQPEPDFRCARGSFTLLWPSR
B6: sp¦Q13451¦FKBP5_HUMAN (protein, UniProt Q13451 1-457, looked up)
Peptidyl-prolyl cis-trans …: MTTDEGAKNNEESPTATVAEQGEDITSKKDRGVLKIVKRVGNGEETPMIGDKVYVHYKGKLSNGKKFDSSHDRNEPFVFSLGKGQVIKAWDIGVATMKKGEICHLLCKPEYAYGSAGSLPKIPSNATLFFEIELLDFKGEDLFEDGGIIRRTKRKGEGYSNPNEGATVEIHLEGRCGGRMFDCRDVAFTVGEGEDHDIPIGIDKALEKMQREEQCILYLGPRYGFGEAGKPKFGIEPNAELIYEVTLKSFEKAKESWEMDTKEKLEQAAIVKEKGTVYFKGGKYMQAVIQYGKIVSWLEMEYGLSEKESKASESFLLAAFLNLAMCYLKLREYTKAVECCDKALGLDSANEKGLYRRGEAQLLMNEFESAKGDFEKVLEVNPQNKAARLQISMCQKKAKEHNERDRRIYANMFKKFAEQDAKEEANKAMGKKTSEGVTNEKGTDSQAMEEEKPEGHV
B7: sp¦Q96I99¦SUCB2_HUMAN (protein, UniProt Q96I99 38-432, looked up)
Succinate--CoA ligase …: LNLQEYQSKKLMSDNGVRVQRFFVADTANEALEAAKRLNAKEIVLKAQILAGGRGKGVFNSGLKGGVHLTKDPNVVGQLAKQMIGYNLATKQTPKEGVKVNKVMVAEALDISRETYLAILMDRSCNGPVLVGSPQGGVDIEEVAASNPELIFKEQIDIFEGIKDSQAQRMAENLGFVGPLKSQAADQITKLYNLFLKIDATQVEVNPFGETPEGQVVCFDAKINFDDNAEFRQKDIFAMDDKSENEPIENEAAKYDLKYIGLDGNIACFVNGAGLAMATCDIIFLNGGKPANFLDLGGGVKEAQVYQAFKLLTADPKVEAILVNIFGGIVNCAIIANGITKACRELELKVPLVVRLEGTNVQEAQKILNNSGLPITSAIDLEDAAKKAVASVAKK
B8: sp¦P56192¦SYMC_HUMAN (protein, UniProt P56192 1-900, looked up)
Methionine--tRNA ligase, …: MRLFVSDGVPGCLPVLAAAGRARGRAEVLISTVGPEDCVVPFLTRPKVPVLQLDSGNYLFSTSAICRYFFLLSGWEQDDLTNQWLEWEATELQPALSAALYYLVVQGKKGEDVLGSVRRALTHIDHSLSRQNCPFLAGETESLADIVLWGALYPLLQDPAYLPEELSALHSWFQTLSTQEPCQRAAETVLKQQGVLALRPYLQKQPQPSPAEGRAVTNEPEEEELATLSEEEIAMAVTAWEKGLESLPPLRPQQNPVLPVAGERNVLITSALPYVNNVPHLGNIIGCVLSADVFARYSRLRQWNTLYLCGTDEYGTATETKALEEGLTPQEICDKYHIIHADIYRWFNISFDIFGRTTTPQQTKITQDIFQQLLKRGFVLQDTVEQLRCEHCARFLADRFVEGVCPFCGYEEARGDQCDKCGKLINAVELKKPQCKVCRSCPVVQSSQHLFLDLPKLEKRLEEWLGRTLPGSDWTPNAQFITRSWLRDGLKPRCITRDLKWGTPVPLEGFEDKVFYVWFDATIGYLSITANYTDQWERWWKNPEQVDLYQFMAKDNVPFHSLVFPCSALGAEDNYTLVSHLIATEYLNYEDGKFSKSRGVGVFGDMAQDTGIPADIWRFYLLYIRPEGQDSAFSWTDLLLKNNSELLNNLGNFINRAGMFVSKFFGGYVPEMVLTPDDQRLLAHVTLELQHYHQLLEKVRIRDALRSILTISRHGNQYIQVNEPWKRIKGSEADRQRAGTVTGLAVNIAALLSVMLQPYMPTVSATIQAQLQLPPPACSILLTNFLCTLPAGHQIGTVSPLFQKLENDQIESLRQRFGGGQAKTSPKPAVVETVTTAKPQQIQALMDEVTKQGNIVRELKAQKADKNEVAAEVAKLLDLKKQLAVAEGKPPEAPKGKKKK
B9: sp¦P34897¦GLYM_HUMAN (protein, UniProt P34897 30-504, looked up)
Serine …: NAAQTQTGEANRGWTGQESLSDSDPEMWELLQREKDRQCRGLELIASENFCSRAALEALGSCLNNKYSEGYPGKRYYGGAEVVDEIELLCQRRALEAFDLDPAQWGVNVQPYSGSPANLAVYTALLQPHDRIMGLDLPDGGHLTHGYMSDVKRISATSIFFESMPYKLNPKTGLIDYNQLALTARLFRPRLIIAGTSAYARLIDYARMREVCDEVKAHLLADMAHISGLVAAKVIPSPFKHADIVTTTTHKTLRGARSGLIFYRKGVKAVDPKTGREIPYTFEDRINFAVFPSLQGGPHNHAIAAVAVALKQACTPMFREYSLQVLKNARAMADALLERGYSLVSGGTDNHLVLVDLRPKGLDGARAERVLELVSITANKNTCPGDRSAITPGGLRLGAPALTSRQFREDDFRRVVDFIDEGVNIGLEVKSKTAKLQDFKSFLLKDSETSQRLANLRQRVEQFARAFPMPGFDEH

System: human HL60 cells
Test: SWATH-MS proteomics, differential protein representation, akirin2 KO vs WT HL60 cells
Format: cell-based
Settings: akirin2 KO vs WT HL60 cells; sheet "Under-represented in KO"
Summary of the method: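 Read-out is label-free SWATH-MS protein area, globally normalized to total detected-protein area, with identifications held at 1% FDR against a library from information-dependent acquisition.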

Row | Molecule | Fold Change | Log (Fold Change)
1 | B1 | 0.3018 | -0.5202
2 | B2 | 0.682 | -0.1662
3 | B3 | 0.6717 | -0.1728
4 | B4 | 0.6781 | -0.1687
5 | B5 | 0.6785 | -0.1685
6 | B6 | 0.6681 | -0.1751
7 | B7 | 0.6651 | -0.1771
8 | B8 | 0.6651 | -0.1771
9 | B9 | 0.6722 | -0.1725
